The labels stand for the following.
B1: mouse Noggin (other, UniProt P97466 28-232, looked up)
chain: QHYLHIRPAPSDNLPLVDLIEHPDPIFDPKEKDLNETLLRSLLGGHYDPGFMATSPPEDRPGGGGGPAGGAEDLAELDQLLRQRPSGAMPSEIKGLEFSEGLAQGKKQRLSKKLRRKLQMWLWSQTFCPVLYAWNDLGSRFWPRYVKVGSCFSKRSCSVPEGMVCKPSKSVHLTVLRWRCQRRGGQRCGWIPIQYPIISECKCSC
B4: human mature bone morphogenic protein 4 (ligand)
chain: KHHSQRARKKNKNCRRHSLYVDFSDVGWNDWIVAPPGYQAFYCHGDCPFPLADHLNSTNHAIVQTLVNSVNSSIPKACCVPTELSAISMLYLDEYDKVVLKNYQEMVVEGCGCR
notes: Recombinant, R&D Systems (314-BP-020); mature active dimer; also called BMP4; BMP-4

Assay [1] concerns the target T1, mature bone morphogenic protein 2 (human, UniProt P12643 283-396). The assay can be described thus: cell-based or functional assay.
The target in assay [2] is B4. Kind of assay: cell-based or functional assay.
Assay [3] has as its target T2, human mature bone morphogenic protein 7 (human, UniProt P18075 293-431).
T2 construct: also called BMP7; BMP-7
T2 sequence: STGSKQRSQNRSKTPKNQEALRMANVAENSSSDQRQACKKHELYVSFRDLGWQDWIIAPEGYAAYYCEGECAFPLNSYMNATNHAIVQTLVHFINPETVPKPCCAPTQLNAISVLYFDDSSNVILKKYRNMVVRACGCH
The assay can be described thus: SPR, VHH on chip, BMP injected. The procedure:
(§1) Serial dilutions (2.0-10 μg/ml) of purified VHHs were spotted on an amine-specific SensEye gold-film gel-type SPRchip (Ssens), using a Continuous Flow Microspotter (Wasatch Microfluidics, Salt Lake City, Utah, United States) as described (Lokate et al., 2007). BMP binding was analyzed on an IBIS MX96 (IBIS Technologies, Enschede, The Netherlands) instrument by performing injections with dilution series (0.05-2.0 μg/ml) of recombinant BMPs on the VHH-coated chip. In each injection, BMPs were injected and incubated for 8 min, followed by 15 min thorough washing with binding buffer (PBS+0.05% Tween20+0.05% sodium azide) to measure dissociation. Epitope binning was done by injecting VHH dilutions (2.0 μg/ml) over the chip, immediately after the dissociation step. Injections with blank binding buffer were used as reference. After each concatenated injection, the chip was regenerated with 10mM glycine-HCl, pH 2.0. Experimental data were processed with SPRintX software (IBIS Technologies) and kinetic parameters were determined using Scrubber2 software (BioLogic Software, Campbell, ACT, Australia). Binding constants were obtained by global fitting to a one-site binding model.

Assay [4] deals with T3, human mature bone morphogenic protein 6 (human, UniProt P22004 375-513).
T3 construct: also called BMP6; BMP-6
T3 sequence: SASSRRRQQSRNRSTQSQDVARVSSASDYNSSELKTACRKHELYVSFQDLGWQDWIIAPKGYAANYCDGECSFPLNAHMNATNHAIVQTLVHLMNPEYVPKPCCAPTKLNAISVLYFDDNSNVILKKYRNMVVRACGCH
The assay can be described thus: SPR, VHH on chip, BMP injected. The protocol: as §1
For orientation: Surface plasmon resonance follows binding to a sensor surface in real time, without labels.

Assay [5] addresses T4, human mature bone morphogenic protein 5 (human, UniProt P22003 340-454).
T4 construct: Often printed as BMPS in the text; also called BMP5; BMPS (so in the source)
T4 sequence: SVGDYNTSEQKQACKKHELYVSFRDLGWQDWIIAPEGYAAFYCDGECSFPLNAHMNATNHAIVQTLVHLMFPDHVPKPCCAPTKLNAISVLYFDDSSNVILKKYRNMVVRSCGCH
Kind of assay: SPR, VHH on chip, BMP injected. The procedure:
as §1

The target of assay [6] is T1, mature bone morphogenic protein 2. The assay can be described thus: SPR (IBIS), VHH spotted on the chip, BMP2 injected. The protocol:
(§2) In a first set of experiments, controls and VHHs (either as monomers or dimers) were coupled to SPR chips and the measurement of BMP affinities was obtained by injecting the different BMPs to the plate.
as §1

Assay [7] concerns the target B4. Kind of assay: titration ELISA of purified VHH on immobilized BMP4. A general note: ELISA stands for enzyme-linked immunosorbent assay.
Assay [8] concerns the target B1. Kind of assay: SPR (IBIS MX96), VHH or control on chip, BMP injected. The procedure: as §2, §1
The target of assay [9] is T4, human mature bone morphogenic protein 5. The assay can be described thus: western blot of unreduced recombinant BMP, C4C4 as primary antibody. Background: Immunoblotting shows a protein as a band on a membrane.
Experimental: To determine the different forms of BMP4, recombinant proteins and carcinoma cell lines lysate were used. Protein concentrations of cell lysates were determined using Pierce™ BCA Protein Assay Kit (Pierce Biotechnology, Rockford, Ill. USA), following the manufacturer's protocol. Equal amount of sample were loaded (between 8 and 30 μg/lane) on a 10% SDS-polyacrylamide gel and subsequently blotted onto PVDF transfer membranes. The membranes were blocked with blocking solution (5% Nonfatmilk+Tris-Buffered Saline with Tween®-20 (TBST) or 5% bovine serum albumin (BSA)+TBST) and subsequently incubated with the appropriate primary antibody and secondary antibody. Afterwards, membranes were washed and incubate with chemiluminescent solution (Pierce™ ECL subtract, Pierce Biotechnology, Rockford, Ill. USA) and visualized using ImageQuant LAS 4000 (GE Healthcare Life Science). […] Secondary antibodies include: HRP-anti-rabbit (1:200; Cat. No. P0448; Dako), HRP-anti-mouse (1:2000; Cat. No. P0447; Dako) and HRP-anti-llama (1:1000; Cat. No. ab112786; Abcam).
Assay [10] addresses B4. Kind of assay: SPR (IBIS MX96), VHH or control on chip, BMP injected. The procedure: as §2, §1
Assay [11] addresses B4. Kind of assay: SPR, ratio of KD values. The procedure: as §2, §1
Assay [12] has as its target T3, human mature bone morphogenic protein 6. Kind of assay: summary of SPR results.

Several values for one entry are separate records, joined by “and”; a condition that tells them apart may be missing. Equal entries are not always repeated.

What is called EC50 (read off the curve) is the concentration giving half of the maximal effect. Higher therefore signals a need for much substance. Broadly, the Kd is the constant that tells how readily two partners part at equilibrium. Read a low Kd as a tighter complex.

T1 sequence (P12643 283-396): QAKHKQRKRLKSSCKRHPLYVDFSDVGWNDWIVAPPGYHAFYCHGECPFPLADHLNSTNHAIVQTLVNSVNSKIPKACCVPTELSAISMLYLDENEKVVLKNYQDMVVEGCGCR

For the molecule “human Noggin (from UniProt Q13253 28-232)”, the IC50, BRE-luciferase, C2C12 cells turned out to be 1600 pM in assay [1] and 540 pM in assay [2].
For “anti-BMP4 R&D (Clone 66119, Mouse IgG2B, MAB757) (antibody)”, the percent inhibition of the BMP4-specific signal at 100 ng/ml, BRE-luciferase, C2C12 cells in assay [2] is 30%.
In the case of B1, the “IC50, BRE-luciferase, C2C12 cells” value in assay [1] was around 2500 pM; in [2], around 615 pM.

B2: VHH C8 (VHH)
VHH: EVQLVESGGGLVQAGGSLRLSCAASGRTFRINDMGWYRQAPGKSRDMVARITSGGNTNYADSVKGRFTISRDNAKNTVYLQMNSLKPEDTAVYYCNADGLRFDSTRYRPFDSWGQGTQVTVSS
notes: also called C8 monomer
For B2, the binding result is reported as “no binding” in assay [3], “no binding” in assay [4], “no binding” in [5] and “binds” in assay [6].

B3: VHH C4 (VHH)
VHH: EVQLVESGGGLVQAGGSLRLSCAASGRTFSTYAMGWFRQAPGKEREFVAAISKGGGITYYSDSVRGRFTISKENAKNTVYLQMNSLKPEDTAVYYCAADPVSSVAKSPVAYPYWGQGTQVTVSS
notes: Produced in E. coli periplasm with tags (anti-myc detection, TALON purification); also called C4 monomer; C4 monohead
For B3, the “EC50 (read off the curve)” value in assay [7] was around 3000 pM.
Consider B4, for which the Kd in assay [8] was found to be 91 pM.

B5: C8C8 homo-bihead (designed binder)
chain: EVQLVESGGGLVQAGGSLRLSCAASGRTFRINDMGWYRQAPGKSRDMVARITSGGNTNYADSVKGRFTISRDNAKNTVYLQMNSLKPEDTAVYYCNADGLRFDSTRYRPFDSWGQGTQVTVSSGGGGSGGGGSEVQLVESGGGLVQAGGSLRLSCAASGRTFRINDMGWYRQAPGKSRDMVARITSGGNTNYADSVKGRFTISRDNAKNTVYLQMNSLKPEDTAVYYCNADGLRFDSTRYRPFDSWGQGTQVTVSS
With B5, in assay [1], the “IC50, BRE-luciferase, C2C12 cells” value is 1200 pM. For the same molecule, in assay [2], the “IC50, BRE-luciferase, C2C12 cells” value is around 450 pM and the “fold potency on BMP4 against BMP2, BRE-luciferase, C2C12 cells” value turned out to be 16 fold.

B6: C4C4 homo-bihead (designed binder)
chain: EVQLVESGGGLVQAGGSLRLSCAASGRTFSTYAMGWFRQAPGKEREFVAAISKGGGITYYSDSVRGRFTISKENAKNTVYLQMNSLKPEDTAVYYCAADPVSSVAKSPVAYPYWGQGTQVTVSSGGGGSGGGGSEVQLVESGGGLVQAGGSLRLSCAASGRTFSTYAMGWFRQAPGKEREFVAAISKGGGITYYSDSVRGRFTISKENAKNTVYLQMNSLKPEDTAVYYCAADPVSSVAKSPVAYPYWGQGTQVTVSS
notes: also called C4C4 dimer
B6: the binding result in assay [9] was “no binding (tested: 0.1 µg/ml primary antibody)”. In addition, the Kd in assay [10] was 9.7 pM. In assay [11], the “fold higher affinity than BMPR1a” value was found to be 70 fold and the “fold higher affinity than Noggin” value was 10 fold. In assay [2], the “IC50, BRE-luciferase, C2C12 cells” value was ~600 pM and 1.3 ng/ml and 45 nM; the “fold increase in inhibition against monomer C4, BRE-luciferase, C2C12 cells” value came out at 9 fold.

B7: VHH E7 (VHH)
VHH: EVQLVESGGGLVQAGGSLRLSCAASGSIRGFVAMAWYRQAPGKQREWVATVTNGGTLYGDSVKGRFTGSRDNAKNTVYLQMNSLKPEDTAVYYCALRQIGASGYDYWGQGTQVTVSS
notes: also called E7 monomer
B7: the binding result in [12] is listed as “binds”.
